In article PMC6726447:

Target: HAdV-D26 fiber knob protein (human adenovirus type 26 (HAdV-D26))
Assay: crystal structure; HAdV-D26K crystals (PACT Premier B01 and B04, pH 4.0 and pH 8.0) soaked in 10 mM Neu5Ac; cubic space group, biological trimer assembled from it

“HAdV-D26 fiber knob protein (domain or fragment)” gave a stoichiometry N of 3.
